These results are taken from publication PMC4081077, “Sequence-specific interactions of Rep proteins with ssDNA in the AT-rich region of the plasmid replication origin”.

Data set [1] deals with T1, TrfA-33 G254D/S267L (monomeric) (plasmid RK2, UniProt P07676 98-382, G254D;S267L).
T1 sequence: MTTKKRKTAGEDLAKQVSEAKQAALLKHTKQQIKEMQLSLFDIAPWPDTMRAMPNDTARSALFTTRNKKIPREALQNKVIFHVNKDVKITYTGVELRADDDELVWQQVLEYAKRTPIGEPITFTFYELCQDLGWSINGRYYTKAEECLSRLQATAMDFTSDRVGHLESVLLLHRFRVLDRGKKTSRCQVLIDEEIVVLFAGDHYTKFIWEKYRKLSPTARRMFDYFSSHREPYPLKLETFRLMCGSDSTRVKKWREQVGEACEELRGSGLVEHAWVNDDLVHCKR
In words: EMSA; EMSA: 40 mM HEPES-KOH pH 8, 25 mM Tris-HCl pH 7.6, 100 mM NaCl, 4% sucrose, 4 mM DTT, 80 ug/ml BSA, 32 C 20 min, 1 pmol probe, 5-20 pmol Rep; SPR: HBS-EP (150 mM NaCl, 10 mM HEPES pH 7.4, 3 mM EDTA, 0.005% P20). As to conditions: protein: recombinant; label: Alexa555 3' tailed (EMSA); immobilized on streptavidin chip (SPR); fluorescent (gel filtration).

The target in data set [2] is T1, TrfA-33 G254D/S267L (monomeric). The experiment in a line: EMSA; up to 20 pmol TrfA per 1 pmol probe; EMSA: 40 mM HEPES-KOH pH 8, 25 mM Tris-HCl pH 7.6, 100 mM NaCl, 4% sucrose, 4 mM DTT, 80 ug/ml BSA, 32 C 20 min, 1 pmol probe, 5-20 pmol Rep; SPR: HBS-EP (150 mM NaCl, 10 mM HEPES pH 7.4, 3 mM EDTA, 0.005% P20). Particulars: protein: recombinant; label: Alexa555 3' tailed (EMSA); immobilized on streptavidin chip (SPR); fluorescent (gel filtration).

The target is the same in data set [3]. The experiment in a line: SPR; 0.1-1 uM TrfA; higher affinity than bottom ssDNA; EMSA: 40 mM HEPES-KOH pH 8, 25 mM Tris-HCl pH 7.6, 100 mM NaCl, 4% sucrose, 4 mM DTT, 80 ug/ml BSA, 32 C 20 min, 1 pmol probe, 5-20 pmol Rep; SPR: HBS-EP (150 mM NaCl, 10 mM HEPES pH 7.4, 3 mM EDTA, 0.005% P20). As to conditions: protein: recombinant; label: biotin; blunt. (In general: Surface plasmon resonance follows binding to a sensor surface in real time, without labels.)

The target in data set [4] is RepE R118P (monomeric) (plasmid F, UniProt P03856 1-251, R118P). The experiment in a line: gel filtration; tripartite with plasmid cccDNA; EMSA: 40 mM HEPES-KOH pH 8, 25 mM Tris-HCl pH 7.6, 100 mM NaCl, 4% sucrose, 4 mM DTT, 80 ug/ml BSA, 32 C 20 min, 1 pmol probe, 5-20 pmol Rep; SPR: HBS-EP (150 m). A general note: Size exclusion chromatography separates by hydrodynamic size, large species first.

Data set [5] has as its target T1, TrfA-33 G254D/S267L (monomeric). In words: SPR; 0.1-1 uM TrfA; response over five times lower than wild type; EMSA: 40 mM HEPES-KOH pH 8, 25 mM Tris-HCl pH 7.6, 100 mM NaCl, 4% sucrose, 4 mM DTT, 80 ug/ml BSA, 32 C 20 min, 1 pmol probe, 5-20 pmol Rep; SPR: HBS-EP (150 mM NaCl, 10 mM HEPES pH 7.4, 3 mM EDTA, 0.005% P20). As to conditions: protein: recombinant; label: Alexa555 3' tailed (EMSA); immobilized on streptavidin chip (SPR); fluorescent (gel filtration).

B1: ssDNA DUEoriV bottom swap M2-R (ssDNA)
DNA: CCACCGCATTGGACAGAAAATTGGACGAAAATAACCAATATTTATAAACCTTGTTTTTAACCAGGGCTGC
As to B1, in data set [1], the binding result is on record as “no binding”.

B2: ssDNA DUEoriV top (ssDNA)
DNA: CCACCGCTAACCTGTCTTTTAACCTGCTTTTAAACCAATATTTATAAACCTTGTTTTTAACCAGGGCTGC
For B2, the binding result in data set [2] is “no binding”.

B3: dsDNA iterons (five RK2 iterons) (dsDNA)
DNA 1: CCTGCGGTATTGACACTTGAGGGGCGCGACTACTGACAGATGAGGGGCGCGATCCTTGACACTTGAGGGGCAGAGTGATGACAGATGAGGGGCGCACCTATTGACATTTGAGGGGCTGTCCACAGGCAG
DNA 2: CTGCCTGTGGACAGCCCCTCAAATGTCAATAGGTGCGCCCCTCATCTGTCATCACTCTGCCCCTCAAGTGTCAAGGATCGCGCCCCTCATCTGTCAGTAGTCGCGCCCCTCAAGTGTCAATACCGCAGG
As for B3, in data set [3], the binding result is recorded as “binds”.

B4: ssDNA DUEoriV bottom swap M1-R (ssDNA)
DNA: CCACCGCATTGGACAGAAAAAACCTGCTTTTAAACCAATATTTATAAACCTTGTTTTTAACCAGGGCTGC
Consider B4, for which the binding result in data set [1] is “no binding”.

B5: ssDNA DUEoriS bottom (ssDNA)
DNA: GCTCTAAAAAAGAAGATCTAAAAACTATAAAAAAAATAATTATAAAAATATCCCCGTG
Consider B5, for which, in data set [4], the binding result was “binds”.

B6: ssDNA DUEoriV bottom swap R (ssDNA)
DNA: CCACCGCATTGGACAGAAAATTGGACGAAAATTTGGTTATAAATTAAACCTTGTTTTTAACCAGGGCTGC
Turning to B6, in data set [5], the binding signal was < 0.2 SPR response relative to N2.
